In patent US6458930B1, “Aspergillus fumigatus cofilin” (Cytokinetics, Inc., priority 2000, dated 2002):

Molecular target: T1, preassembled pyrene-actin filaments (Gallus gallus, UniProt P68139)
T1 construct: Extract chicken breast acetone powder (as prepared above) in Buffer A; from tissue; host or cells: chicken breast muscle (actin); E. coli (cofilin, made in house)
Assay: pyrene actin assay (fluorescence of preassembled pyrene-actin filaments)
Type: biochemical, chicken
Conditions: addition of stoichiometric amounts of cofilin to preassembled pyrene-actin filaments; binding to actin polymer and enhancing depolymerization combined
Text: Assays for the interaction of A. fumigatus cofilin and any other cofilin with actin in 384-well plates using a fluorescence as the detection means have been developed. The assays employ pyrene-labeled actin (Pollard (1984) J Cell Biol 99:769-777).
Upon addition of cofilin to filamentous pyrene-actin, two well-characterized biochemical activities can be monitored. First, cofilin binds to the filaments and partially quenches the pyrene fluorescence. Second, it induces filament disassembly, further decreasing pyrene fluorescence. The decrease in fluorescence that results when cofilin is added to filamentous actin is monitored (FIG. 3). An inhibitor of the interaction of cofilin with pyrene-actin will result in an increase in fluorescence.
This very robust signal can be exploited to an assay for modulators of cofilin. Chicken skeletal actin was used because it can be purified in quantities needed for high throughput screening; it is 90% identical in amino acid sequence to fungal actin, and it can assemble into copolymers with fungal actin. Pyrene-labeled skeletal actin has been prepared and characterized as to its polymerization properties as well as for its interaction with fungal cofilin.

B1: A. fumigatus cofilin: protein of A. fumigatus capable of binding actin, amino acid sequence SEQ ID NO:2, expressed in E. coli (protein, listed as Aspergillus fumigatus)
chain: MALASGVSIADECITAFNDFRMSGNKANKTKFIIFKIADNKKEVVIDEVSQEEDYEVFRSRLEATKDSKGNPAPRYAVYDVEYDLGGGEGKRSKIVFISWVPSDTPTLWSMIYASTRENLKNALNIHTSIHADDKGDIEWKTVLAEASGGKAGK
reduction in fluorescence intensity: 3-5 fold
